According to patent US20220380471A1 (US Dept. of Health and Human Services, published 2022):

T1: mouse B7H3-His (mouse, UniProt Q8VE98 29-244, limits assumed)
T1 construct: also called recombinant mouse B7H3-His protein; not shown: His tag
T1 sequence (looked up): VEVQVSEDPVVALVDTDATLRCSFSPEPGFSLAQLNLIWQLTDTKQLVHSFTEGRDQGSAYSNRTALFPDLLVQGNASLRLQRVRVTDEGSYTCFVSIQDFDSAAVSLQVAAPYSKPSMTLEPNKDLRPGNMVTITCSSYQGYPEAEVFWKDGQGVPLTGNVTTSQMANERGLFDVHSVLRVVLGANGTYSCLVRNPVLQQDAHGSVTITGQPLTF

T2: recombinant human B7H3-Fc protein (human, UniProt Q5ZPR3 29-466, limits assumed)
T2 construct: 154 kDa non-reduced, 77 kDa reduced; also called hB7H3-Fc; not shown: Fc part
T2 sequence (looked up): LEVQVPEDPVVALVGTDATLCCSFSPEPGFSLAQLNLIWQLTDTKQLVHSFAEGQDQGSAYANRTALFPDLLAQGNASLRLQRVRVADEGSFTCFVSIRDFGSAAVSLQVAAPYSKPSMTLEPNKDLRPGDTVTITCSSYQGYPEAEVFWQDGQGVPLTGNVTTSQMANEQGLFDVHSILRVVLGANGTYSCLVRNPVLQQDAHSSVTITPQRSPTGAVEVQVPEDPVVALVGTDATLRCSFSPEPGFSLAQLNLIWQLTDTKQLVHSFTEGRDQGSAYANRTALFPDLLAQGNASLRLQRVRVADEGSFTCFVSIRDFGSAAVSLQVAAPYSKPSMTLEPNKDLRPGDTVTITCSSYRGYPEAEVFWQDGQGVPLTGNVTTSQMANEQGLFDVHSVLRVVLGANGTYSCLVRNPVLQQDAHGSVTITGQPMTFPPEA


Experiments:
mouse B7H3-His = target: T1, mouse B7H3-His; assay: phage ELISA, cross-species
Method in brief: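 Libraries from eight individual camels supplied the camel VHH phage, which were panned on recombinant B7H3-Fc protein for 3 rounds. Phage ELISA then measured how the selected phage bound to immobilised antigens, namely human and other-species B7H3 or control proteins, with the ELISA signal as the recorded value.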

[1] = target: T2, recombinant human B7H3-Fc protein; assay: BLI (Octet), human B7H3-Fc; same value printed for 660, 528, 264, 198, 66 and 33 nM
Procedure: FIG. 13: Kinetics of RWG4 on human B7H3-Fc. The association/dissociation properties of RWG4 were measured on the Octet system (Creative Biolabs) using recombinant human B7H3-Fc protein.
(§1) The association/dissociation properties of RWC4 and RWG4 were measured on the Octet system (Creative Biolabs) using either recombinant human B7H3-Fc protein or recombinant mouse B7H3-His protein.

Irrelevant antigen = target: T3, Irrelevant antigen; assay: ELISA; row Irrelevant antigen; well 2 of 3
T3 construct: negative control
Method in brief: (§2)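 Camel VHH nanobodies were isolated by phage panning on recombinant B7H3-Fc and then purified. Their binding to immobilised recombinant proteins (B7H3 fusion proteins and non-B7H3 control proteins) was measured by ELISA and recorded as the ELISA signal.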

B7H3 R&D [2] = assay: ELISA; row B7H3 R&D; well 1 of 3
Method in brief: as §2

[3] = target: T2, recombinant human B7H3-Fc protein; assay: BLI (Octet), human B7H3-Fc; same value printed for 660, 132 and 26.4 nM
Procedure: FIG. 12: Kinetics of RWC4 on human B7H3-Fc. The association/dissociation properties of RWC4 were measured on the Octet system (Creative Biolabs) using recombinant human B7H3-Fc protein.
as §1

[4] = target: T2, recombinant human B7H3-Fc protein; assay: ELISA; row B7H3-Fc; well 1 of 3
Method in brief: as §2

B7H3 R&D [5] = assay: ELISA; row B7H3 R&D; well 2 of 3
Method in brief: as §2

Binder	ELISA signal (mouse B7H3-His)	Kd [1]	koff [1]	kon [1]	ELISA reading (name not given) (Irrelevant antigen)	ELISA reading (name not given) (B7H3 R&D [2])	Kd [3]	koff [3]	kon [3]	ELISA reading (name not given) [4]	ELISA reading (name not given) (B7H3 R&D [5])
RWC4 (VHH, Camel VHH; tag not described; also called camel antibody RWC4) VHH: EVQLVESGGGSVQAGGSLRLSCVASEDSTSAMCMGWFRQAPGKEREGVACINPTGEVTWYGDSVKGRFTISRDTVKKIVYLQMNSLKPEDTAMYYCAARVTYGGDWSTDTDYEYWGQGTQVTVSS	–	–	–	–	0.0888	0.132	3.8 nM	0.000101 s⁻¹	26500 M⁻¹ s⁻¹	2.01	0.151
RWB12 (VHH, Camel VHH; tag not described; also called camel antibody RWB12) VHH: QVQLVESGGGSVQVGGSLRLSCAASGFTYNSYSVGWFRQAPGKEREGVAAINSGGSSTYYAASVKGRFTISRDNAKNTVYLQMNSLKPEDTAMYYCAARSPSPLTFQTRTLREDSYNYWGQGTQVTVSS	–	–	–	–	0.0864	0.0582	–	–	–	0.878	0.0559

Other lines, results leading:

ELISA signal (mouse B7H3-His)	Kd [1]	koff [1]	kon [1]	ELISA reading (name not given) (Irrelevant antigen)	ELISA reading (name not given) (B7H3 R&D [2])	Kd [3]	koff [3]	kon [3]	ELISA reading (name not given) [4]	ELISA reading (name not given) (B7H3 R&D [5])	Binder
0.0665	6.94 nM	6.34e-05 s⁻¹	9130 M⁻¹ s⁻¹	–	–	–	–	–	–	–	RWG4 (VHH, Camel VHH; tag not described; also called camel antibody RWG4) VHH: QVQLVQSGGGLVQPGGSLRLSCAASGFTFSVYWFYWVRQAPRQGLEWVSTIASNGSTYYSDSVKGRFTISRDNAKNTVYLQMNSLKPEDTAVYYCVSDPDYYSDYERAYKFWAQGTQVTVSS
2.47	–	–	–	0.098	0.0696	–	–	–	1.97	0.0632	RWG8 (VHH, Camel VHH; tag not described; also called camel antibody RWG8) VHH: DVQLVESGGGLVQPGGSLRLSCAASGFTFSRYWMGWFRQAPGKGVEWVSTINSGGGSTYYADSVKGRFTISRDNAKNTLYLQLNNLKTEDTAMYYCAKEQWRTGSRGQGTQVTVSS
